Results as given in patent US20220259284A1, “CA2 COMPOSITIONS AND METHODS FOR TUNABLE REGULATION” (Obsidian Therapeutics, Inc., priority 2019, published 2022).

How the values were obtained:
[1] = tested on: CD40L constructs regulated by Carbonic anhydrase DDs in T cells; assay: Acetazolamide dose response of CD40L expression in transduced T cells, FACS (MFI, % CD40L positive); assay type: cell-based, human; details: for CD40L MFI / Percentage CD40L positive cells: 24 hours; for CD40L MFI: FACS
Protocol: (§1) CD40L constructs regulated by Carbonic anhydrase DDs were generated and cloned into lentiviral vectors. Purified T cells were thawed and cultured with aCD3 aCD28 Dynabeads (in the ratio of 3 beads to 1 T cell).
The constructs were transduced in T cells the next day. […] 24 hours after the addition of ligand T cells were stained for CD40L expression and analyzed using FACS.

[2] = tested on: CD40L constructs regulated by Carbonic anhydrase DDs in T cells; assay: Time course regulation of CD40L in transduced T cells, FACS (MFI, % CD40L positive); assay type: cell-based, human; details: constitutive CD40L
Protocol: as §1
A control of empty vector (EV) and constitutive CD40L (OT-001661; amino acid SEQ ID NO. 6067 and nucleic acid SEQ ID NO. 6068) was also evaluated. Cells were fixed at 2, 4, 6, 8, 24, and 48 hours and then T cells were stained for CD40L expression and analyzed using FACS. The results are shown as median fluorescence intensity in Table 12 and as percentage CD40L positive cells in Table 13.

[3] = tested on: CA2 regulated CD40L in activated T cells; assay: Regulation of CD40L in T cells by CA2, percent of cells expressing CD40L (surface expression); assay type: cell-based, human; details: ligand N/A
Protocol: To test regulation, activated T cells were lentivirally transduced with CA2 regulated CD40L (OT-001990) and a control of CD40L (OT-001661). Two days later, cells were treated with vehicle or […] ligand for 24h as described in Table 14 after which they were analyzed for CD40L surface expression. In the table, “Acz” is Acetazolamide.

[4] = tested on: monocyte derived dendritic cells (DCs), Nalm6; assay: IFNg and IL-12 in supernatant of DC + Nalm6 + CAR+ T cell co-culture, MSD; assay type: cell-based; details: DC + T cells + Nalm6, no ligand stated, supernatant 24 hours
Protocol: To measure the effect of CD40L expression that is tuned by the biocircuits of the present disclosure in the context of CARs, T cells expressing any of the CA2 CD40L-CAR constructs described herein were co-cultured with monocyte derived dendritic cells (DCs).
In vitro cultures were set up by adding 1×10^4 DCs into culture with 1×10^5 Nalm6 and 1×10^5 CAR+ T cells. […] Supernatants were collected 24 hours later and analyzed for IFNg and IL-12 by MSD assay. OT-001661 (SEQ ID NO. 6067; encoded by SEQ ID NO. 6068), that expressed CD40L payloads constitutively was used as control.

CD40L in HEK293T cells = assay: Soluble CD40L (shedding) in medium of transfected HEK293T cells, ELISA; assay type: cell-based, human; details: HEK293T cell culture medium, no ligand stated, Repeat 1
[5] = tested on: CA2 regulated CD40L in activated T cells; assay: Regulation of CD40L in T cells by CA2, percent of cells expressing CD40L (surface expression); assay type: cell-based, human; details: All Cells, ligand N/A

CC(=O)Nc1nnc(S(N)(=O)=O)s1 [Acetazolamide]
CD40L MFI ([1]; CD4+ T cells with CA2 DD CD40L construct (OT-001990), Acetazolamide 0.01 μM): 112
Percentage CD40L positive cells ([1]; CD4+ T cells with CA2 DD regulated CD40L construct, Acetazolamide 0.01 μM): 4.13%
Percentage CD40L positive cells ([1]; CD4+ T cells with CA2 DD regulated CD40L construct, Acetazolamide 0.05 μM): 5.44%
Percentage CD40L positive cells ([1]; CD4+ T cells with CA2 DD regulated CD40L construct, Acetazolamide 0.2 μM): 10.3%
Percentage CD40L positive cells ([1]; CD4+ T cells with CA2 DD regulated CD40L construct, Acetazolamide 0.8 μM): 45.6%
Percentage CD40L positive cells ([1]; CD4+ T cells with CA2 DD regulated CD40L construct, Acetazolamide 3.1 μM): 69.3%
Percentage CD40L positive cells ([1]; CD4+ T cells with CA2 DD regulated CD40L construct, Acetazolamide 12.5 μM): 90.3%
Percentage CD40L positive cells ([1]; CD4+ T cells with CA2 DD regulated CD40L construct, Acetazolamide 50 μM): 91.1%
CD40L MFI ([1]; CD4+ T cells, Acetazolamide 0.2 μM): 185
CD40L MFI ([1]; CD4+ T cells, Acetazolamide 0.8 μM): 481
CD40L MFI ([1]; CD4+ T cells, Acetazolamide 3.1 μM): 840
CD40L MFI ([1]; CD4+ T cells, Acetazolamide 12.5 μM): 2783
CD40L MFI ([1]; CD4+ T cells, Acetazolamide 50 μM): 3728
amount of Acetazolamide required to achieve stabilization of CD40L ([1]; CD4+ and CD8+ T cells): within the level of the ligand that can be achieved in humans
CD40L MFI ([1]; CD8+ T cells with CA2 DD CD40L construct (OT-001990), Acetazolamide 0.01 μM): 105
Percentage CD40L positive cells ([1]; CD8+ T cells with CA2 DD regulated CD40L construct, Acetazolamide 0.01 μM): 0.59%
Percentage CD40L positive cells ([1]; CD8+ T cells with CA2 DD regulated CD40L construct, Acetazolamide 0.05 μM): 0.44%
Percentage CD40L positive cells ([1]; CD8+ T cells with CA2 DD regulated CD40L construct, Acetazolamide 0.2 μM): 1.48%
Percentage CD40L positive cells ([1]; CD8+ T cells with CA2 DD regulated CD40L construct, Acetazolamide 0.8 μM): 25.2%
Percentage CD40L positive cells ([1]; CD8+ T cells with CA2 DD regulated CD40L construct, Acetazolamide 3.1 μM): 41.2%
Percentage CD40L positive cells ([1]; CD8+ T cells with CA2 DD regulated CD40L construct, Acetazolamide 12.5 μM): 77.2%
Percentage CD40L positive cells ([1]; CD8+ T cells with CA2 DD regulated CD40L construct, Acetazolamide 50 μM): 80.7%
CD40L MFI ([1]; CD8+ T cells, Acetazolamide 0.05 μM): 104
CD40L MFI ([1]; CD8+ T cells, Acetazolamide 0.2 μM): 136
CD40L MFI ([1]; CD8+ T cells, Acetazolamide 0.8 μM): 307
CD40L MFI ([1]; CD8+ T cells, Acetazolamide 3.1 μM): 380
CD40L MFI ([1]; CD8+ T cells, Acetazolamide 12.5 μM): 1599
CD40L MFI ([1]; CD8+ T cells, Acetazolamide 50 μM): 2184

B1: OT-001661: constitutive CD40L control; amino acid SEQ ID NO. 6067 and nucleic acid SEQ ID NO. 6068 (protein)
chain: MHMIETYNQTSPRSAATGLPISMKIFMYLLTVFLITQMIGSALFAVYLHRRLDKIEDERNLHEDFVFMKTIQRCNTGERSLSLLNCEEIKSQFEGFVKDIMLNKEETKKENSFEMQKGDQNPQIAAHVISEASSKTTSVLQWAEKGYYTMSNNLVTLENGKQLTVKRQGLYYIYAQVTFCSNREASSQAPFIASLCLKSPGRFERILLRAANTHSSAKPCGQQSIHLGGVFELQPGASVFVNVTDPSQVSHGTGFTSFGLLKL
notes: constitutive CD40L control; 6068
CD40L MFI ([2]; CD4+ T cells, 2 hours): 4042
Percentage CD40L positive cells ([2]; CD4+ T cells, 2 hours): 72.8%
CD40L MFI ([2]; CD4+ T cells, 4 hours): 4651
Percentage CD40L positive cells ([2]; CD4+ T cells, 4 hours): 77%
CD40L MFI ([2]; CD4+ T cells, 6 hours): 3156
Percentage CD40L positive cells ([2]; CD4+ T cells, 6 hours): 67.2%
CD40L MFI ([2]; CD4+ T cells, 24 hours): 9491
Percentage CD40L positive cells ([2]; CD4+ T cells, 24 hours): 93.3%
CD40L MFI ([2]; CD4+ T cells, 48 hours): 5639
Percentage CD40L positive cells ([2]; CD4+ T cells, 48 hours): 88.5%
CD40L MFI ([2]; CD8+ T cells, 2 hours): 2212
Percentage CD40L positive cells ([2]; CD8+ T cells, 2 hours): 56.9%
CD40L MFI ([2]; CD8+ T cells, 4 hours): 2994
Percentage CD40L positive cells ([2]; CD8+ T cells, 4 hours): 63.2%
CD40L MFI ([2]; CD8+ T cells, 6 hours): 1773
Percentage CD40L positive cells ([2]; CD8+ T cells, 6 hours): 48.5%
CD40L MFI ([2]; CD8+ T cells, 24 hours): 3563
Percentage CD40L positive cells ([2]; CD8+ T cells, 24 hours): 71.2%
CD40L MFI ([2]; CD8+ T cells, 48 hours): 2313
Percentage CD40L positive cells ([2]; CD8+ T cells, 48 hours): 71.1%
MFI ([3]; All Cells): 20451
CD40L positive ([3]; CD4+ T cells): 98.7%
MFI ([3]; CD4+ T cells): 24489
CD40L positive ([3]; CD8+ T cells): 97.8%
MFI ([3]; CD8+ T cells): 14352
IFNg [4]: 1579.21 pg/mL
IL12 [4]: 58.88 pg/mL
sCD40L (CD40L in HEK293T cells): 2900 pg/mL
CD40L positive [5]: 98%
